Columns and labels:
Assay in all cases: pulldown
KHDRBS3 (Homo sapiens) = biological target: T1, KHDRBS3 (Homo sapiens) (UniProt O75525); conditions: 20 nM protein, 1.5 uM RNA pool; 20 mM HEPES pH 7.8, 70 mM KCl, 10 mM NaCl, 10% glycerol, 2 mM DTT, 0.1 ug/uL BSA; 30 min, 4 C (protocol of this paper; not …); cited from earlier work
T1 sequence: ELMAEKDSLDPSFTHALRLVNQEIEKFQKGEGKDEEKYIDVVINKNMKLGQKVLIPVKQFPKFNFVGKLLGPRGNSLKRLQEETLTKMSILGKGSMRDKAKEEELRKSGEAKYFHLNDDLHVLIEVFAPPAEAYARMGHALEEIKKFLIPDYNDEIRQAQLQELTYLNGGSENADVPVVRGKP

[1] = biological target: T2, PK07890.1 (Cannabis sativa) (UniProt A0A7J6I7X4); conditions: 20 nM protein, 1.5 uM RNA pool; 20 mM HEPES pH 7.8, 70 mM KCl, 10 mM NaCl, 10% glycerol, 2 mM DTT, 0.1 ug/uL BSA; 30 min, 4 C
T2 sequence: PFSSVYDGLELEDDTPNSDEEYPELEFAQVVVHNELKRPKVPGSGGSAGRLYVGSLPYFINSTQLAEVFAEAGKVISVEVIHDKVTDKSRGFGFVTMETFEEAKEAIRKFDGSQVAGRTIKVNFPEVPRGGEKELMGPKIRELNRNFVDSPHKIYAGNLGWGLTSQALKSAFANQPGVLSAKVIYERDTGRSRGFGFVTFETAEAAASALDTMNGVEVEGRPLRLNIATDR

[2] = biological target: T3, LmjF.24.1570 (Leishmania major) (UniProt Q4QAH4); conditions: 20 nM protein, 1.5 uM RNA pool; 20 mM HEPES pH 7.8, 70 mM KCl, 10 mM NaCl, 10% glycerol, 2 mM DTT, 0.1 ug/uL BSA; 30 min, 4 C
T3 sequence: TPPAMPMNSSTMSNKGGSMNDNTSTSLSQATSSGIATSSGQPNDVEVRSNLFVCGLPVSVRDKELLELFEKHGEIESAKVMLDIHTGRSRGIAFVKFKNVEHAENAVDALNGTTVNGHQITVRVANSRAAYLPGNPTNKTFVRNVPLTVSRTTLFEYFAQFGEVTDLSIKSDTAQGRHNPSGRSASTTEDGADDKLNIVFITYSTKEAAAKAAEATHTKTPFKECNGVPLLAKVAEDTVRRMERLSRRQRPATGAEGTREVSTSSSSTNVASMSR

[3] = biological target: lark (Drosophila melanogaster) (UniProt Q94901); conditions: 20 nM protein, 1.5 uM RNA pool; 20 mM HEPES pH 7.8, 70 mM KCl, 10 mM NaCl, 10% glycerol, 2 mM DTT, 0.1 ug/uL BSA; 30 min, 4 C (protocol of this paper; not …); cited from earlier work
[4] = biological target: T4, NCU00707 (Neurospora crassa) (UniProt Q7SET9); conditions: 20 nM protein, 1.5 uM RNA pool; 20 mM HEPES pH 7.8, 70 mM KCl, 10 mM NaCl, 10% glycerol, 2 mM DTT, 0.1 ug/uL BSA; 30 min, 4 C
T4 sequence: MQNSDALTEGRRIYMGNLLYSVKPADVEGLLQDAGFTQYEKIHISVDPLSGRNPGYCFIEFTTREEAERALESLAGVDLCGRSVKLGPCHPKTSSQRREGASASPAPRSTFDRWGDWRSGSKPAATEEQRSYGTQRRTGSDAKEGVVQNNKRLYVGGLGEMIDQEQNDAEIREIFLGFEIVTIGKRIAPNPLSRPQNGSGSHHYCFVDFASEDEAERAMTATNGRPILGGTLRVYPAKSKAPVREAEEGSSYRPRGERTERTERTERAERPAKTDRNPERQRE

[5] = biological target: T5, NCU00556 (Neurospora crassa) (UniProt Q7SF93); conditions: 20 nM protein, 1.5 uM RNA pool; 20 mM HEPES pH 7.8, 70 mM KCl, 10 mM NaCl, 10% glycerol, 2 mM DTT, 0.1 ug/uL BSA; 30 min, 4 C
T5 sequence: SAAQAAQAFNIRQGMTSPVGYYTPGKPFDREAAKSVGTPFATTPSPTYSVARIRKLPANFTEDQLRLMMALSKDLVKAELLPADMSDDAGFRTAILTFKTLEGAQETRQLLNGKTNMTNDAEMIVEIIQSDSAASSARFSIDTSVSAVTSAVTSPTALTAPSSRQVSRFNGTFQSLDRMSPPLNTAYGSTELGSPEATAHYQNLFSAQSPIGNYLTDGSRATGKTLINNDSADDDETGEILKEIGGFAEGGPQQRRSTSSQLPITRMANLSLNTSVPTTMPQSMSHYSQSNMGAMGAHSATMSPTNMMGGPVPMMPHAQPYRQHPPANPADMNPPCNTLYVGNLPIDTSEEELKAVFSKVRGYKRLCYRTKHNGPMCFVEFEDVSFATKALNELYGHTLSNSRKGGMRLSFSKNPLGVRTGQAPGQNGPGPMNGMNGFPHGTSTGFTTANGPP

[6] = biological target: T6, Tb927.7.320 T9S (Trypanosoma brucei) (UniProt Q57U22); conditions: 20 nM protein, 1.5 uM RNA pool; 20 mM HEPES pH 7.8, 70 mM KCl, 10 mM NaCl, 10% glycerol, 2 mM DTT, 0.1 ug/uL BSA; 30 min, 4 C
T6 sequence: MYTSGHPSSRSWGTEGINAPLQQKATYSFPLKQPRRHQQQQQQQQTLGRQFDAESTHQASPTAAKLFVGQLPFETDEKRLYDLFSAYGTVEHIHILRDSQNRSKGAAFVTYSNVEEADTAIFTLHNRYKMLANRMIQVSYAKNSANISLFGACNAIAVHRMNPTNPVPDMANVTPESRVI

[7] = test system: T7, ENSMODG00000011903 (Monodelphis domestica); conditions: 20 nM protein, 1.5 uM RNA pool; 20 mM HEPES pH 7.8, 70 mM KCl, 10 mM NaCl, 10% glycerol, 2 mM DTT, 0.1 ug/uL BSA; 30 min, 4 C
T7 sequence: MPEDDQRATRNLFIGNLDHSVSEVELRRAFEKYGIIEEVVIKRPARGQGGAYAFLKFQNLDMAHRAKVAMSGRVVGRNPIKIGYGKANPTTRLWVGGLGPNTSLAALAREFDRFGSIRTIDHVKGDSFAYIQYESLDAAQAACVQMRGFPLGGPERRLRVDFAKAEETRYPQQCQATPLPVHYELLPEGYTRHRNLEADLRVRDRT

[8] = biological target: T8, ENSGALG00000014089 (Gallus gallus) (UniProt A0A8V0XZS6); conditions: 20 nM protein, 1.5 uM RNA pool; 20 mM HEPES pH 7.8, 70 mM KCl, 10 mM NaCl, 10% glycerol, 2 mM DTT, 0.1 ug/uL BSA; 30 min, 4 C
T8 sequence: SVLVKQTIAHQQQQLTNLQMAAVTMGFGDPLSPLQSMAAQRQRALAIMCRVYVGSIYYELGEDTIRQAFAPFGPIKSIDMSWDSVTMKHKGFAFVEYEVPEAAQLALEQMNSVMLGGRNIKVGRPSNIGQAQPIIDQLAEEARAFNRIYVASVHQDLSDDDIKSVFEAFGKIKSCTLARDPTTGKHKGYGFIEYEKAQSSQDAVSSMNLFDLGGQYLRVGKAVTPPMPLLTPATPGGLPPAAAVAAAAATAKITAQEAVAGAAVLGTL

Chain of lark (Drosophila melanogaster) (Q94901 1-207): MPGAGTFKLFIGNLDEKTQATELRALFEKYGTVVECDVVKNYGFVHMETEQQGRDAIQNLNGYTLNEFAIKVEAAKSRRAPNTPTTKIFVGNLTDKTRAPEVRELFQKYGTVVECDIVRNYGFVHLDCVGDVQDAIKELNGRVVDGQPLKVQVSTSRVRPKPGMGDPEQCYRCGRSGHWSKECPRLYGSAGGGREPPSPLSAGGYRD

GAUAAAC [RNAcompete motif RNCMPT00034]
binding signal (z-score (mean of top ten 7-mers)) (KHDRBS3 (Homo sapiens)): 9.52

GAUACU [RNAcompete motif RNCMPT00790]
binding signal (z-score (mean of top ten 7-mers)) [1]: 15.3

UAUACU [RNAcompete motif RNCMPT00761]
binding signal (z-score (mean of top ten 7-mers)) [2]: 22.5

UCGCGCG [RNAcompete motif RNCMPT00097]
binding signal (z-score (mean of top ten 7-mers)) [3]: 15.5

UUAUGA [RNAcompete motif RNCMPT00768]
binding signal (z-score (mean of top ten 7-mers)) [4]: 7.83

UUGCAU [RNAcompete motif RNCMPT00754]
binding signal (z-score (mean of top ten 7-mers)) [5]: 14.3

UUUGCUU [RNAcompete motif RNCMPT00751]
binding signal (z-score (mean of top ten 7-mers)) [6]: 12.5

UUUUUUG [RNAcompete motif RNCMPT00758]
binding signal (z-score (mean of top ten 7-mers)) [7]: 7.84

UUUUUUU [RNAcompete motif RNCMPT00760]
binding signal (z-score (mean of top ten 7-mers)) [8]: 11.4

Reference: PMC12990809
